± gives the uncertainty stated by the source.

40 sequences from the supplement of paper PMC7877785 can be followed below.

The nature of this series: self-splicing fitness, log relative to wild type (ln ratio); higher = more splicing; Tetrahymena group I intron in knt gene, E. coli kanamycin selection, DiMSum; sequences stand for … in CUCUCU…GGAGGGAAAAGUUAUCAGGCAUGCACCUGGUAGCUAGUCUUUAAACCAAUAGAUUGCAUCGGUUUAAAAGGCAAGACCGUCAAAUUGCGGGAAAGGGGUCAACAGCCGUUCAGUACCAAGUCUCAGGGGAAACUUUGAGAUGGCCUUGCAAAGGGUAUGGUAAUAAGCUGACGGACAUGGUCCUAACCACGCAGCCAAGUCCUAAGUCAACAGAUCUUCUGUUGAUAUGGAUGCAGUUCACAGACUAAAUGUCGGUCGGGGAAGAUGUAUUCUUCUCAUAAGAUAUAGUCGGACCUCUCCUUAAUGGGAGCUAGCGGAUGAAGUGAUGCAACACUGGAGCCGCUGGGAACUAAUUUGUAUGCGAAAGUAUAUUGAUUAGUUUUGGAGUACUCGUGGUCG
In a few lines:
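Colonies from six replicate transformations of E. coli BL21(DE3) were pooled and amplicon-sequenced on an Illumina HiSeq 2500. The library placed an intron with all eight P1ex-region nucleotides randomised inside the knt kanamycin-resistance gene on pET-22b(+), and cells grew overnight at 37°C or 30°C on LB agar with or without 25 μg/mL kanamycin (plus 100 μg/mL carbenicillin, 50 μM IPTG, 0.2% rhamnose). Fitness is the DiMSum error-weighted combination of wild-type-normalised replicate fold changes, kanamycin versus none.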

In the case of CGUUAGCAAUAUUACGCUAC, the “self-splicing fitness (ln)” value (30 °C) is -1.48 ± 0.24. On to CGUUAGCAAUAUUACGCUAU, for which the “self-splicing fitness (ln)” value (30 °C) was -2.29 ± 0.28. For CGUUAGCAAUAUUACGGGGC, the “self-splicing fitness (ln)” value was -2.57 ± 0.15 (30 °C) and -3.12 ± 0.28 (37 °C). Take CGUUAGCAAUAUUACGUCAA: the “self-splicing fitness (ln)” value (37 °C) was -1.41 ± 0.38.

For the sequence CGUUAGCAAUAUUACGUCCC, the “self-splicing fitness (ln)” value (37 °C) is -0.641 ± 0.36. With CGUUAGCAAUAUUACGUCGA, the “self-splicing fitness (ln)” value (30 °C) was -2.71 ± 0.19 and the “self-splicing fitness (ln)” value (37 °C) was -1.16 ± 0.2. Regarding CGUUAGCAAUAUUACGUUCU, the “self-splicing fitness (ln)” value was -1.39 ± 0.15 (30 °C) and -1.25 ± 0.14 (37 °C). The like results for CGUUAGCAAUAUUACGUUGU were, in that order, -4.22 ± 0.29 and -2.78 ± 0.22. The like results for CGUUAGCAAUAUUACGUUUC were, in that order, -3.28 ± 0.2 and -2.19 ± 0.21. For CGUUAGCAAUAUUACGUUUG the same measures were -1.01 ± 0.08 and -0.558 ± 0.1. Turning to CGUUAGCAAUAUUACGUUUU, the “self-splicing fitness (ln)” value was -4.77 ± 0.27 (30 °C) and -2.99 ± 0.17 (37 °C).

Regarding CUAAAGCAAUAUUACGAACA, the “self-splicing fitness (ln)” value (30 °C) was -2.48 ± 0.12 and the “self-splicing fitness (ln)” value (37 °C) was -2.03 ± 0.2. In the case of CUAAAGCAAUAUUACGACAC, the “self-splicing fitness (ln)” value (37 °C) was -1.88 ± 0.47. For the sequence CUAAAGCAAUAUUACGACGU, the “self-splicing fitness (ln)” value by setting is: (30 °C) -3.33 ± 0.28; (37 °C) -0.435 ± 0.19. For CUAAAGCAAUAUUACGAGAC the same measures were -3.33 ± 0.18 and -0.499 ± 0.16. Consider CUAAAGCAAUAUUACGAUCU, for which the “self-splicing fitness (ln)” value by setting is: (30 °C) -4.75 ± 0.23; (37 °C) -2.5 ± 0.18. Consider CUAAAGCAAUAUUACGCAAG, for which the “self-splicing fitness (ln)” value reads like this: (30 °C) -1.11 ± 0.089; (37 °C) -0.574 ± 0.12. For CUAAAGCAAUAUUACGCACA the same measures were -2.11 ± 0.16 and -2.11 ± 0.27. Regarding CUAAAGCAAUAUUACGCACG, the “self-splicing fitness (ln)” value reads like this: (30 °C) -0.0346 ± 0.092; (37 °C) 0.511 ± 0.14.

For CUAAAGCAAUAUUACGCAGA, the “self-splicing fitness (ln)” value runs as follows: (30 °C) -3.64 ± 0.2; (37 °C) -3.29 ± 0.42.

For CUAAAGCAAUAUUACGCAGC, the “self-splicing fitness (ln)” value is, setting by setting: (30 °C) -3.5 ± 0.33; (37 °C) -2.3 ± 0.44. For CUAAAGCAAUAUUACGCCCC, under “30 °C”, the “self-splicing fitness (ln)” value was -1.15 ± 0.45. CUAAAGCAAUAUUACGCCGC: the “self-splicing fitness (ln)” value (30 °C) was -2.9 ± 0.22. With CUAAAGCAAUAUUACGCGUC, the “self-splicing fitness (ln)” value is -3.94 ± 0.31 (30 °C) and -2.17 ± 0.25 (37 °C). For CUAAAGCAAUAUUACGGAAC the same measures were -2.36 ± 0.19 and -1.42 ± 0.17. The like results for CUAAAGCAAUAUUACGGCAG were, in that order, -0.0254 ± 0.076 and -0.422 ± 0.098. With CUAAAGCAAUAUUACGGUGU, the “self-splicing fitness (ln)” value was -4.65 ± 0.25 (30 °C) and -3.05 ± 0.21 (37 °C). For CUAAAGCAAUAUUACGUGAA the same measures were -3.29 ± 0.23 and -3.36 ± 0.32. For CUAAAGCAAUAUUACGUUAC the same measures were -3.78 ± 0.26 and -2.06 ± 0.31. For CUAAAGCAAUAUUACGUUUU the same measures were -4.6 ± 0.26 and -2.58 ± 0.21. Take CUACAGCAAUAUUACGAACU: the “self-splicing fitness (ln)” value runs as follows: (30 °C) -4.38 ± 0.24; (37 °C) -2.02 ± 0.25. For CUACAGCAAUAUUACGACGA the same measures were -2.65 ± 0.15 and -2.02 ± 0.18. Regarding CUACAGCAAUAUUACGAGGC, the “self-splicing fitness (ln)” value (37 °C) is -1.35 ± 0.3. Take CUACAGCAAUAUUACGAGUG: the “self-splicing fitness (ln)” value is -0.714 ± 0.047 (30 °C) and -0.418 ± 0.068 (37 °C). For CUACAGCAAUAUUACGAUCA the same measures were -1.82 ± 0.17 and -1.49 ± 0.2. The like results for CUACAGCAAUAUUACGAUUU were, in that order, -4.36 ± 0.22 and -1.95 ± 0.14.

On to CUACAGCAAUAUUACGCCGG, for which the “self-splicing fitness (ln)” value (30 °C) was -2.19 ± 0.13 and the “self-splicing fitness (ln)” value (37 °C) was -1.26 ± 0.13. The like results for CUACAGCAAUAUUACGCGUC were, in that order, -3.92 ± 0.26 and -2.77 ± 0.24.

In the case of CUACAGCAAUAUUACGCGUG, the “self-splicing fitness (ln)” value (30 °C) was -1.83 ± 0.076 and the “self-splicing fitness (ln)” value (37 °C) is -1.03 ± 0.089. The like results for CUACAGCAAUAUUACGCUAC were, in that order, -3.78 ± 0.22 and -2.25 ± 0.24.
